According to the DeepSol protein solubility set:

Test: soluble on expression in E. coli; label from the status in PepcDB or PDB records

Sequence	soluble on expression in E. coli
MSSRHRLDLDGSGRGDRRRSPNRRSRSRSRSPHRRSSPDRKRQIGAVGNMKIQINPYNNQPFSNRYWAIWEKRSQLPVWEYKEKFMELLRNNQCITLVGETGSGKTTQIPQWAVEFMKQQQQGQPPGQARLVACTQPRRVAAMSVATRVAEEMDVVLGQEVGYSIRFEDCISERTVLKYCTDGMLLREAMNSPLLDKYKVLILDEAHERTLATDILMGLIKEIVRNRADIKVVIMSATLDAGKFQRYFEDCPLLSVPGRTFPVEIFFTPNAEKDYLEAAIRTVIQIHMVEEVEGDILLFLTGQEEIEEACKRIDREIQALGADAGALSCIPLYSTLPPAAQQRIFEPAPPNRPNGAISRKCVISTNIAETSLTIDGVVFVIDPGFSKQKVYNPRIRVESLLVCPISKASAMQRAGRAGRTKPGKCFRLYTETAYGSEMQDQTYPEILRSNLGSVVLQLKKLGTEDLVHFDFMDPPAPETLMRALELLNYLQAINDDGELTELGSLMAEFPLDPQLAKMLITSTELNCSNEILSITAMLSVPQCWVRPNEMRTEADEAKARFAHIDGDHLTLLNVYHSFKQNQEDPQWCYDNFINYRTMKTADTVRTQLSRVMDKYNLRRVSTDFKSRDYYLNIRKALVAGFFMQVAHLERSGHYVTVKDNQLVNLHPSTVLDHKPEWALYNEFVLTTKNFIRTVTDVRPEWLLQIAPQYYDLDNFPDGDTKRKLTTVMQTLQRNAGRGY	soluble
MECETDEQKQGSDENMSECETSSVCSSSDTGLFTNDEGRQGDDEQSDWFYEGECVPGFTVPNLLPKWAPDHCSEVERMDSGLDKFSDSTFLLPSRPAQRGYHTRLNRLPGAAARCLRKGRRRLVGKETSINTLGTERISHIISDPRQKDFWLPSAGKRERNQFNPLSPLYSLDVLADASHRRCSPAHCSARQANVHWGPPCSRVIKRKRKPVATASLSSPSAVHMDAVEPTTPASQAPKSPSSEWLVRTSAAEKATDATTATFFKMPQEKSPGYSLEHHHHHH	soluble
MSENSNQFLDALKQMQGVEVGDIVDVEVLDVEDGQIDVGVENAGVEGVITRREYTSDRNADLRDLVKPGDKFKALVLRRAGGDKENGEFFFSVTRLKEREAFDKLQKDFEEGNAIEGTVTSSVRGGLLVDVGTRGFLPASLISNRYVSDLKPYIGKTMKLKITEIDPNKNRLILSHKDLVEEEREEAFDKVASQLVVGDVVEGKVSRLTNFGSFIDVGGVDGLVHISEISYKHVDKPSDVLKVGQDVKVKVIGIDNDRHRISLSIKQTEPSPFEQATADLNEGDIFEGEVKSLTNFGAFVEVADGIQGLVHVSEISNKHVDKPSDVLKVGQTVKVKVLNIDPNDRRISLSIKAADSNSSSSDNHNSRPRRSRNENTVNKKYMSDNDNGFALGDIIGDQLKDRKLEHHHHHH	soluble
MAGDPMKKLAFAITATSGAAAFLTHHDAQASTQHTVQSGESLWSIAQKYNTSVESIKQNNQLDNNLVFPGQVISVGGSDAQNSSNTSPQAGSASSHTVQAGESLNIIASRYGVSVDQLMAANNLRGYLIMPNQTLQIPNGGSGGTTPTATTGSNGNASSFNHQNLYTAGQCTWYVFDRRAQAGSPISTYWSDAKYWAGNAANDGYQVNNTPSVGSIMQSTPGPYGHVAYVERVNGDGSILISEMNYTYGPYNMNYRTIPASEVSSYAFIHLEHHHHHH	not soluble
MGSDKIHHHHHHMVMDHDIYFGYQRPRPTEYVQFANFDSRQLNLYLAGRIANNPPTKEVTESIGYMDGIIDFSDILGRRIFDNRTIEYQFKALNINYHDRKLLEQKCKRLLLIPMRQPIYDSHDLPFYWFGKASSVTANDDHVNNVLEITVQFNVSPYALRKGQFDDIWDNFSLETGYAQFTKYSVKGTKKISLYNDSDLKSRLKVICQNDMTINGKYKYTKNYQDNPNFRLEPGINDLTVNGNGDIEFQWESEVML	not soluble
MGSDKIHHHHHHMEKLQESMYQLIVETSTNLPKDVRRAIQQAKERENAGTRSAMALGTITNNIKMADDNISPICQDTGMPTFKIYTPVGVNQLKLKEAIYNALERATKDGKLRPNSVDSLFGDNSGNNLGPGTPVIKFEQWEKDYIDARLILKGGGCENKNIQYSLPCELEGLGRAGRDLEGIRKCLLHAVYQAQGQGCSAGVIGVGIGGDRTSGYELAKNQLFRTLDDVNPIPELQQLEEYVLENANKLGIGTMGFGGETTLLGCKIGVYNRLPASFYVSVAYNCWAYRRLGVTIHPETGEIMDWLYQEGEDTLEQEVQEKTEQREIVLQAPITEEQIRELRVGDVVTINGMMYTGRDAIHKHLMDNDCPVDLNGQIIYHCGPVVVKDENDNWQIKAAGPTTSIREEPYQGDIMKKFGIRAVIGKGGMGAKTLAALEEHGGVYLNAIGGAAQYYAECIKEVKDVDFLQFGIPEAMWHLRIDGFKAVVTMDSHGNSLHADVDKTSLEKLASFKEPVFK	not soluble
MELNGKAPSRRQLNIQHWNTAEGARVLFVEARELPMFDLRVTFAAGSSQDGGTPGLAALTNAMLNEGVAGKDVTAIAEGFEGLGADFGNGSYRDMAVASLRSLSAKDKREPALKLFTEVAGKPTFPEDALKRIKNQMLAGFEYEKQNPGKIAGKALFGKLYGDHPYAHPSDGTAESITGISLAQLRAFHAKAYTGGNAVIALVGDLSRAEAEAIAAQVSAGLPKGPALAAPAQPALEHHHHHH	soluble
SEKELRSTILFNAYKKEVFTTNTGYKSLQKRLRSNWKIQSLKDEITSEKLIGVKLWITAGPREKFTAAEFEVLKKYLDSGGDILVMLGEGGESRFDTNINFLLEEYGIMVNNDAVVRNVYYKYFHPKEALGSDGVLNREISRAAGKAVPGVIDEENSGNNAQALTFVYPFGATLSVMKPAVAVLSTGSVCFPLNRPILAFYHSKNQGFGKLAVLGSCHMFSDQYLDKEENSKIMDVVFQWLTTGDIHLNQIDAEDPEISDYTMVPDTATLSEQLRVCLQEGDENPRDFTTLFDLSIYQLDTTCLPKVIKAHEELNVKHEPLQLVQPQFEMPLPALQPAVFPPSFRELPPPPLELFDLDETFSSEKARLAQITNKCTDEDLEFYVMKCGDILGVTSKLPKDQQDAKHILEHIFFQVVEFKKLNQEAH	soluble
MSQGVEFNRLMLDMRAMQADAMSLPKVTAAPELAPGQSTFADMLGQAIGKVHETQQASTQLANAFEIGKSGVDLTDVMIASQKASVSMQAMTQVRNKLVQAYQDIMQMPV	not soluble
MAHHHHHHMMYTGEIENGQMHGRGCLIYPNKEKYEGDWVYGKRHGHGVYTYADGSKYDGEWVEDKVHGKGTCYYASGNRYSGDWTFGRINGRGTLEYADGDRYDGEWKDGRMHGKGLYYYSNGDRYDGEWKDDKRHGKGTVTYAGPDGSVSEKFDGDWVEGRMQGWGKYYYADGGVYEGEWQDGKMHGKGTYIFPNGNKYEGEWCDDVKQGYGVLTYVNGERYEGYWLDDKAHGTGTLTYLQGDRYTGEWYQGKKHGRGTLAYSNKDTYEGEWRNDSATGRGVLEYANGCRYEGDWLDDRRHGEGQLLLPDGSSYEGGWVNGKKEGRARIILKCGAVFVGTWKDNLIVGQGEFYLSENCDLNNPDY	soluble
SAEAGTGEPSPSVEGEHGTEYDTLPSDTVSLSDSDSDLSLPGGAEVEALSPMGLPGEEDSGPDEPPSPPSGLLPATVQPFHLRGMSSTFSQRSRDIFDCLEGAARRAPSSVAHTSMSDNGGFKRPLAPSGRSPVEGLGRAHRSPASPRVPPVPDYVAHPERWTKYSLEDVTEVSEQSNQATALAFLGSQSLAAPTDCVSSFNQDPSSCGEGRVIFTKPVRGVEARHERKRVLGKVGEPGRGGLGNPATDRGEGPVELAHLAGPGSPEAEEWGSPHGGLQEVEALSGSVHSGSVPGLPPVETVGFHGSRKRSRDHFRNKSSSPEDPGAEV	soluble
MAHHHHHHMTTVPESTCAASCESQLCLLCDTPYTSWTEHSREHAHVARSVVCRFFVMPERSESIMQHLERHIALDLKEVDALTDRKVGRRRERLLAGLVHLVEKGVLRDSIPTLPFSTPARGGTDKGRGAGISGVTLGVDADLFLNRVLVGEAFLRREVLDRCARLMPSLTAMELNSVVTYLTSTRQMARIFDELSLIELLVTRSGLESAPANVNTATAAATAAGRAAESASVEPLSETAAAPLPDSDASTESPPAHQPCSSTLAASLPSPPRWSLSREDKVYIMCACLGELHRFHEQERPRSVISKAAADAIVLNVLAGHGRENLVSELVHETLQRIVDEGTVVWRQHQEDVKRRGRSSEANVAGAARISARRAPRTDSTVSEDLCYVRTAPLPSAPSPRPASQVTLDSAAAEQLVSSYLPFNDVDQLSGAETDAVKATAEAPSRSSPDRTCTTSPECISVLHTSEKDWGPLTAELRKRAEDWNRLPFVPSTPELKASKMPR	not soluble
SNADDYTAGKEYVELSSPVPVSQPGKIEVVELFWYGCPHCYAFEPTIVPWSEKLPADVHFVRLPALFGGIWNVHGQMFLTLESMGVEHDVHNAVFEAIHKEHKKLATPEEMADFLAGKGVDKEKFLSTYNSFAIKGQMEKAKKLAMAYQVTGVPTMVVNGKYRFDIGSAGGPEETLKLADYLIEKERAAAKK	soluble
MGSDKIHHHHHHMNPEFIHGATEIETTNRGLRPHRLSKEIVERYCDPQFSAMERQPSGVRVVCRTTATSVTLTTYSTRVVYLDSGRPGGKIDVLIDGAPTSSTPTSGGETTEVNFITGATERRLKDPQVLTVDGLSEQEKVVEFWLPHNEEIEVISLKANAALNTVEDTRPVWINYGSSISHGSVATAPTKIWPAIVAQSKNYNLRNFGFGGSAMLDPFMARLIRDTPADLITLEIGINIVNGDVMRRRGLEAAVDGFINTIRDGHPTTPIKIVSPFYCPIHEKTPGPGAFDTSSFGSGQIRFIATGEPDEHGRLTLEMVREVLEGFVEKQKDPHLTYVDGASLYQASDAPLLDNLHPDEASHALIAQRLLKQL	not soluble
MAVKQPVPKDPAKVERIMHAAMHTFAVSGYRDAKTDVIASAATVSKGLLFHYYGSKQRLYLATVQLATDTIIATINQQVFDVPDDLVTLMVRSARYKAAFGKDHPDEMKVLIDAYGALERLPVKIQAQMKILYTKSMTISREMISQVLDKMTLRADVDRDATIALIMGVYNQIFMEFQTYMRENHQVESMADIEWVVSRAKTYMGILEHGFMAADLDDQQ	not soluble
MGDICETVEATFHGVAYLLTVSTIEGETLCVEVEQKSDCSRWRGDFTSRYIEDITAKTGNFKKFPVFVKMLLSALKQASDSVFVDLLTYQDLEVLKSRKAGGQAPPPRTQPPNNKRYLIMTYAAEFDRVHYPLPLLFEENPDPQHLKRIISQLRSEVEGLQVEAGNRRGGEVSAELRRLREENAALQRQLKQMERSGSGVGAGAESSEARELARELRTVRKERDLLQARVEAAEAELERERGLHRRELRRRAKEQQELVDELGRCKEQIRELKMRIRQLTEDLEARDRRMNSTDRIRSVYARGSNDGSTSGVAPRRPSSGGRGPSSNYMAPTRGADSRSNSRGRGTSSAERSRPNSAPIGGPRPRFDPTEYVRQRKERESAAVGGRRSNAPTPPRSAGTSRASSVVGSRPASAERLPPIRTASPTNSRPSSTERYRPGSGGPPGRTSAGGSRGAADRAGARGPDPYAPRSRGASPSGRATAWGEPGASGGGAGGWSKFPGGGGGGVGGSGQRISSNSPRSMSPARALAEVKQKLSTFVAGRGGSLQGDDASSAHGEHMSQSSKSQVFEDATAEIADIDSRLHALQDFLRMAKTSSTSTSTTQA	not soluble
MSLDVISELVKKNGSKILLIVLDGLGGLPVKEGKTELELAKTPNLDKLVKNSATGLHIPVDWGITPGSGPGHLGLFGYDPIKYQIGRGILEALGLGIDVKDTDIAVRGNYATVEYRNGKPIVVDRRAGRIPTEENKRITAKLQEAIKEIDGVQVIIKPGMEHRLAIVFRFPEKLSPGSDAINDTDPQQVGKEPLEPKGENPNAEKVAEVVRKFIQRATEILRNEPKANYILLRGFSQKPDIPTMEERFGVKPCCIAVYPMYKGLASLVGMDVIEFEGSTIQDEIDTLKKVWNEYDYFFVHIKKTDSYGEDGNYEGKVSVIEDFDAHLPQFLELKPDVLAITGDHSTPSILKGHSWHPVPLLIHSPYVLGGTSERFTERECLKGELGIIPAVKITQLLLANALRLKKYGAEGHHHHHH	soluble
